Patent US12173301B2, “Weed control methods and related compositions and plants” (Syngenta Crop Protection AG, priority 2019, dated 2024)
Numbering of substitutions follows the chain as printed. Numbers in names are those of the source.

B1: Y217L: Arabidopsis FatA acyl-ACP thioesterase variant, substitution Y217L relative to SEQ ID NO: 1 (protein, listed as Arabidopsis thaliana)
chain: MLKLSCNVTDSKLQRSLLFFSHSYRSDPVNFIRRRIVSCSQTKKTGLVPLRAVVSADQGSVVQGLATLADQLRLGSLTEDGLSYKEKFVVRSYEVGSNKTATVETIANLLQEVGCNHAQSVGFSTDGFATTTTMRKLHLIWVTARMHIEIYKYPAWGDVVEIETWCQSEGRIGTRRDWILKDSVTGEVTGRATSKWVMMNQDTRRLQKVSDDVRDELLVFCPQEPRLAFPEENNRSLKKIPKLEDPAQYSMIGLKPRRADLDMNQHVNNVTYIGWVLESIPQEIVDTHELQVITLDYRRECQQDDVVDSLTTTTSEIGGTNGSATSGTQGHNDSQFLHLLRLSGDGQEINRGTTLWRKKPSS
B2: N269W: Arabidopsis FatA acyl-ACP thioesterase variant, substitution N269W relative to SEQ ID NO: 1 (protein, listed as Arabidopsis thaliana)
chain: B1 chain with L217Y, N269W
B3: F123N: Arabidopsis FatA acyl-ACP thioesterase variant, substitution F123N relative to SEQ ID NO: 1 (protein, listed as Arabidopsis thaliana)
chain: B1 chain with F123N, L217Y
B4: G114S: Arabidopsis FatA acyl-ACP thioesterase variant, substitution G114S relative to SEQ ID NO: 1 (protein, listed as Arabidopsis thaliana)
chain: B1 chain with G114S, L217Y
B5: F220H: Arabidopsis FatA acyl-ACP thioesterase variant, substitution F220H relative to SEQ ID NO: 1 (protein, listed as Arabidopsis thaliana)
chain: B1 chain with L217Y, F220H
B6: A144Y: Arabidopsis FatA acyl-ACP thioesterase variant, substitution A144Y relative to SEQ ID NO: 1 (protein, listed as Arabidopsis thaliana)
chain: B1 chain with A144Y, L217Y
B7: N269Y: Arabidopsis FatA acyl-ACP thioesterase variant, substitution N269Y relative to SEQ ID NO: 1 (protein, listed as Arabidopsis thaliana)
chain: B1 chain with L217Y, N269Y
B8: V121N: Arabidopsis FatA acyl-ACP thioesterase variant, substitution V121N relative to SEQ ID NO: 1 (protein, listed as Arabidopsis thaliana)
chain: B1 chain with V121N, L217Y
B9: F123C: Arabidopsis FatA acyl-ACP thioesterase variant, substitution F123C relative to SEQ ID NO: 1 (protein, listed as Arabidopsis thaliana)
chain: B1 chain with F123C, L217Y
B10: L218C: Arabidopsis FatA acyl-ACP thioesterase variant, substitution L218C relative to SEQ ID NO: 1 (protein, listed as Arabidopsis thaliana)
chain: B1 chain with L217Y, L218C
B11: S168R: Arabidopsis FatA acyl-ACP thioesterase variant, substitution S168R relative to SEQ ID NO: 1 (protein, listed as Arabidopsis thaliana)
chain: B1 chain with S168R, L217Y
B12: S168C: Arabidopsis FatA acyl-ACP thioesterase variant, substitution S168C relative to SEQ ID NO: 1 (protein, listed as Arabidopsis thaliana)
chain: B1 chain with S168C, L217Y
B13: C221F: Arabidopsis FatA acyl-ACP thioesterase variant, substitution C221F relative to SEQ ID NO: 1 (protein, listed as Arabidopsis thaliana)
chain: B1 chain with L217Y, C221F
B14: A118V: Arabidopsis FatA acyl-ACP thioesterase variant, substitution A118V relative to SEQ ID NO: 1 (protein, listed as Arabidopsis thaliana)
chain: B1 chain with A118V, L217Y

Test: FatA enzymatic kinetic parameters with oleoyl-CoA as substrate
Format: biochemical
Conditions: Michaelis-Menten
Method: For the determination of FatA enzymatic kinetic parameters with oleoyl-CoA as substrate, assays are carried out essentially as described above for the testing of inhibitor compounds but with some changes to the method as follows. Oleoyl CoA is omitted from the assay master mix and added as a separate component to achieve final concentration of 40 μM, 23.5 μM. 13.8 μM, 8.1 μM, 4.8 μM, 2.8 μM and 1.7 μM (i.e. 1.7× dilution scheme). The level of enzymatic activity is determined from the slope of the progress curve (initial linear rates) using assay values measured at 0, 20, 40, 60, 90 and 120 s after addition of the enzyme. Kinetic parameters are then calculated using the Michaelis-Menten model as implemented in GraphPad Prism software.
FatA variant enzymes were prepared from 1 L E coli grows and assays carried out to determine enzyme kinetics as described in Example 1.

Point of comparison: B8, “kcat (s^−1) - best fit” value 0.8 s⁻¹. Against it:
- B1 — 2.1-fold higher, 1.7 s⁻¹
- B2 — within 1.5-fold, 0.7 s⁻¹
- B3 — 2.7-fold lower, 0.3 s⁻¹
- B4 — 2.9-fold higher, 2.3 s⁻¹
- B5 — 2.5-fold higher, 2.0 s⁻¹
- B6 — 14-fold higher, 11.5 s⁻¹
- B7 — 7.6-fold higher, 6.1 s⁻¹
- B9 — 2.7-fold lower, 0.3 s⁻¹
- B10 — within 1.5-fold, 1.1 s⁻¹
- B11 — 1.6-fold higher, 1.3 s⁻¹
- B12 — within 1.5-fold, 1.2 s⁻¹
- B13 — 1.9-fold higher, 1.5 s⁻¹
- B14 — 5.6-fold higher, 4.5 s⁻¹

Same assay, conditions: Michaelis-Menten, read-out: Km (μM) - best fit

Point of comparison: B2, Km 1 µM. Against it:
- B1 — 4.7-fold higher, 4.7 µM
- B3 — 15-fold higher, 14.6 µM
- B4 — 2.8-fold higher, 2.8 µM
- B5 — 3.2-fold higher, 3.2 µM
- B6 — 3.9-fold higher, 3.9 µM
- B7 — 4-fold higher, 4 µM
- B8 — 7.1-fold higher, 7.1 µM
- B9 — 4.8-fold higher, 4.8 µM
- B10 — within 1.5-fold, 0.8 µM
- B11 — 3-fold higher, 3 µM
- B12 — 6.2-fold higher, 6.2 µM
- B13 — 4.3-fold higher, 4.3 µM
- B14 — 2.4-fold higher, 2.4 µM
